Measured values: patent publication US20240190931A1, “MAGEC2 IMMUNOGENIC PEPTIDES, BINDING PROTEINS RECOGNIZING MAGEC2 IMMUNOGENIC PEPTIDES, AND USES THEREOF” (TScan Therapeutics, Inc., priority 2021, published 2024)
Entries after “also recorded” stand apart in the source; their conditions may differ.

Experiments:
[1] = biological target: T1, MAGEC2 peptide on HLA-A*24:02 (human); assay: killing
T1 peptide: VGPDHFCVF

VGP peptide-pulsed cells = assay: IFP+ reporter-based cell killing of VGP peptide-pulsed HEK293T cells; design: species or system human; conditions: HEK293T cells pulsed with serial dilutions of VGP peptide, co-cultured with TCR-transduced T cells; FIG. 9A
Description: (§1) To characterize the recognition of the identified peptide by a TCR, wild-type HEK293 cells were pulsed with serial dilutions of peptide and co-cultured with T cells transduced with the TCR of interest. After 24 hours, cultures were mixed by pipetting, and centrifuged at 2,000 rpm for 2 minutes. Supernatants were collected and measured for IFNγ secretion using a human IFNγ 3rd generation single-plex assay (Protein Simple) following the manufacturer's instructions. Alternatively, monoallelic HEK293T cells expressing a granzyme-activated fluorescent reporter were pulsed with serial dilutions of peptide and co-cultured with T cells transduced with an individual TCR of interest. After 4 hours, the cultures were harvested by pipetting and fluorescence of the reporter was detected using a CytoFLEX™ S instrument (Beckman Coulter).
Data shown in FIGS. 7-9 were generated according to similar materials, methods, and experiments as described above.

[2] = biological target: T2, MAGEC2 peptide on HLA-B*07:02 (human); assay: killing
T2 peptide: RAREFMELL

RAR peptide-pulsed cells = assay: T cell recognition assay: IFNγ release on co-culture with RAR peptide-pulsed wild-type HEK293T cells; format: cell-based, human; conditions: wild-type HEK293T cells pulsed with serial dilutions of RAR peptide, co-cultured with TCR-transduced T cells; FIG. 4A
Description: as §1

[3] = biological target: T3, RAR peptide-HLA-B*07:02 (pMHC) complex (Homo sapiens, UniProt P01889+Q9UBF1); assay: Peptide pulse-based cytotoxicity assay with granzyme-activated fluorescent reporter in HLA-B*07:02 monoallelic HEK293T cells; format: cell-based; conditions: HLA-B*07:02 monoallelic HEK293T reporter cells pulsed with RAR peptide, co-cultured with TCR-transduced T cells; FIG. 4B
T3 construct: expressed in transfected cells; host or cells: MHC-null HEK293T cells engineered to express HLA-B*07:02 (monoallelic reporter cells)
Description: as §1

[4] = test system: melanoma cells that express MAGEC2; assay: Reactivity to melanoma cell lines measured by IFNγ release; format: cell-based, human
Description: To detect reactivity to melanoma cell lines, wild-type melanoma cell lines were seeded at 6×10^4 cells in a 96-well flat bottom plate and rested for 16 hours at 37° C. in 5% CO2. On the following day, T cells were thawed, washed in complete RPMI-1640 medium, and added to the wells for an effector to target ratio of 1:1. The co-culture was incubated for 16 hours. Cells were then harvested by pipetting, transferred to V-bottom 96-well plates, and centrifuged at 2,000 rpm for 2 minutes. The supernatant was collected for IFNγ measurement using a human IFNγ 3rd generation single-plex assay (Protein Simple). For flow cytometry analysis (Cytoflex S™ instrument, Beckman Coulter), cell pellets were washed with FACS buffer (PBS, 0.5% BSA, 2 mM EDTA) and stained for activation-induced markers, including PE-conjugated anti-CD137 (Miltenyi), AF647-conjugated anti-CD69 (Biolegend), and BV421-conjugated anti-CD8 (BioLegend).
Melanoma lines were purchased from ATCC (Manassas, VA) and HEK293T cells were originally from Takara Bio (Shiga, Japan). All media were supplemented with 10% FBS and 1% penicillin and incubated at 37° C. in 5% CO2. A101D, A2058, HT144, and HEK293T cells were maintained in complete DMEM. SK-MEL-5 was cultured in complete EMEM, whereas HMCB required complete EMEM with 10 mM HEPES. […]

[5] = test system: MAGEC2-expressing melanoma cell lines; assay: Incucyte cytotoxicity assay on NucLight Red melanoma cell lines; format: cell-based, human; conditions: E:T ratio of 2:1; versus MHC-mismatched control TCR or no T cells; FIG. 6
Description: Melanoma lines were purchased from ATCC (Manassas, VA) and HEK293T cells were originally from Takara Bio (Shiga, Japan). All media were supplemented with 10% FBS and 1% penicillin and incubated at 37° C. in 5% CO2. A101D, A2058, HT144, and HEK293T cells were maintained in complete DMEM. SK-MEL-5 was cultured in complete EMEM, whereas HMCB required complete EMEM with 10 mM HEPES. Untransduced cancer cells were maintained in preparation for the T cell recognition assay, and 10^6 cells of each cell line were introduced with Incucyte® NucLight™ Red lentivirus reagent (Sartorius, Gottingen, Germany). Positively-labeled cells were selected using 1.5 ug/mL of puromycin over 72 hours.
Melanoma cells selected for Incucyte® NucLight™ analysis were seeded into 96-well flat bottom plates (Corning, Flintshire, UK) at 10^4 cells, except for HMCB cells, which were plated at 5×10^3 cells. On the same day, T cells were thawed, washed in complete RPMI-1640, and allowed to rest overnight in medium with 50 U/mL IL-2 (PeproTech), 5 ng/mL IL-7, and 5 ng/mL IL-15 (R&D Systems). All cells were rested for 16 hours at 37° C. in 5% CO2. A two-fold serial dilution of the T cells was performed for the effector to target ratios, with the highest E:T at 4:1, and the lowest at 1:2. […] Imaging utilized a 4× objective lens and data were analyzed using the Incucyte® Basic Software. […]

B1: MAGEC2 TCR 4-58 (TCR, V domains shown)
Valpha: KNQVEQSPQSLIILEGKNCTLQCNYTVSPFSNLRWYKQDTGRGPVSLTIMTFSENTKSNGRYTATLDADTKQSSLHITASQLSDSASYICVVSARNAGNMLTFGGGTRLMVKP
Vbeta: EAQVTQNPRYLITVTGKKLTVTCSQNMNHEYMSWYRQDPGLGLRQIYYSMNVEVTDKGDVPEGYKVSRKEKRNFPLILESPSPNQTSLYFCACASSFGTSGRGEQFFGPGTRLTVL
binding result [1]: recognises

B2: TCR 4-58: T cell receptor (TRAV10/TRAJ39; TRBV27) recognizing MAGEC2 VGP peptide presented by HLA-A*24:02; tested in transduced T cells (protein)
TCR alpha: RGNGKNQVEQSPQSLIILEGKNCTLQCNYTVSPFSNLRWYKQDTGRGPVSLTIMTFSENTKSNGRYTATLDADTKQSSLHITASQLSDSASYICVVSARNAGNMLTFGGGTRLMVKPHIQNPEPAVYQLKDPRSQDSTLCLFTDFDSQINVPKTMESGTFITDKCVLDMKAMDSKSNGAIAWSNQTSFTCQDIFKETNATYPSSDVPCDATLTEKSFETDMNLNFQNLLVMVLRILLLKVAGFNLLMTLRLWSS
TCR beta: EAQVTQNPRYLITVTGKKLTVTCSQNMNHEYMSWYRQDPGLGLRQIYYSMNVEVTDKGDVPEGYKVSRKEKRNFPLILESPSPNQTSLYFCACASSFGTSGRGEQFFGPGTRLTVLEDLRNVTPPKVSLFEPSKAEIANKQKATLVCLARGFFPDHVELSWWVNGKEVHSGVCTDPQAYKESNYSYCLSSRLRVSATFWHNPRNHFRCQVQFHGLSEEDKWPEGSPKPVTQNISAEAWGRADCGITSASYQQGVLSATILYEILLGKATLYAVLVSTLVVMAMVKRKNS
Recognition and killing of VGP peptide-pulsed cells (IFP+ reporter-based cell killing) (VGP peptide-pulsed cells): recognizes and kills VGP peptide-pulsed cells

B3: MAGEC2 TCR 8-3 (TCR, V domains shown)
Valpha: ILNVEQSPQSLHVQEGDSTNFTCSFPSSNFYALHWYRWETAKSPEALFVMTLNGDEKKKGRISATLNTKEGYSYLYIKGSQPEDSATYLCASGSGGATNKLIFGTGTLLAVQP
Vbeta: GEEVAQTPKHLVRGEGQKAKLYCAPIKGHSYVFWYQQVLKNEFKFLISFQNENVFDETGMPKERFSAKCLPNSPCSLEIQATKLEDSAVYFCASSQSRSLRGTEAFFGQGTRLTVV
binding result [2]: recognises

B4: TCR 8-3: T cell receptor (TRAV24*01/TRAJ32*02; TRBV16*01/TRBJ1-1*01) recognizing MAGEC2 RAR peptide presented by HLA-B*07:02; tested in transduced T cells (protein)
TCR alpha: ILNVEQSPQSLHVQEGDSTNFTCSFPSSNFYALHWYRWETAKSPEALFVMTLNGDEKKKGRISATLNTKEGYSYLYIKGSQPEDSATYLCASGSGGATNKLIFGTGTLLAVQPNIQNPEPAVYQLKDPRSQDSTLCLFTDFDSQINVPKTMESGTFITDKCVLDMKAMDSKSNGAIAWSNQTSFTCQDIFKETNATYPSSDVPCDATLTEKSFETDMNLNFQNLLVMVLRILLLKVAGFNLLMTLRLWSS
TCR beta: GEEVAQTPKHLVRGEGQKAKLYCAPIKGHSYVFWYQQVLKNEFKFLISFQNENVFDETGMPKERFSAKCLPNSPCSLEIQATKLEDSAVYFCASSQSRSLRGTEAFFGQGTRLTVVEDLRNVTPPKVSLFEPSKAEIANKQKATLVCLARGFFPDHVELSWWVNGKEVHSGVCTDPQAYKESNYSYCLSSRLRVSATFWHNPRNHFRCQVQFHGLSEEDKWPEGSPKPVTQNISAEAWGRADCGITSASYQQGVLSATILYEILLGKATLYAVLVSTLVVMAMVKRKNS
Recognition of RAR peptide-pulsed cells (IFNγ release) (RAR peptide-pulsed cells): recognizes | Killing of RAR peptide-pulsed cells (granzyme-activated fluorescent reporter) [3]: demonstrated to kill cells expressing RAR peptide-HLA-B*07:02 (pMHC) complex; also recorded: kills | Relation of TCR reactivity to MAGEC2 expression of melanoma cell lines ([4]; IFNγ release versus MAGEC2 expression, FIG. 5E): corresponds to MAGEC2 expression | Recognition of melanoma cell lines (IFNγ release) ([4]; melanoma cell lines, E:T 1:1, 16 hours, FIG. 5D): recognizes melanoma cells that express MAGEC2 | Killing of MAGEC2-expressing melanoma cell lines (red object count over time) [5]: demonstrated to kill cancer cells that express MAGEC2; also recorded: kills MAGEC2-expressing melanoma cell lines
